We go through six molecules from US9375425B2, “Combination of a C-Met antagonist and an aminoheteroaryl compound for the treatment of cancer” (Pierre Fabre Medicament, priority 2008, dated 2016).

One assay deals with NCI-H441 NSCLC. The assay is described as follows: In vivo activity of 224G11 and PF-02341066 as single treatments, NCI-H441 s.c. xenograft. As to conditions: NCI-H441 s.c. in Athymic nude mice; for tumors growth of treated mice (FIG. 1): 224G11 i.p. 2 mg loading dose then 1 mg twice a week, PF-02341066 50 mg/kg p.o.; for antitumoral activity, single treatments compared with each other: same regimens. As for the experimental part: In order to verify that the NCI-H441 in vivo model available in the laboratory is sensible to both the 224G11 antibody and the PF-2341066 compound, immunocompromised mice engrafted subcutaneously with NCI-H441 were used. Briefly, NCI-H441 NSCLC cells from ATCC were cultured in RPMI 1640 medium, 10% FCS, 1% L-Glutamine. Cells were split two days before engraftment so that they were in exponential phase of growth. Ten million NCI-H441 cells were injected s.c. to Athymic nude mice. […] For the antibody treatment, mice were treated i.p. with a loading dose of 2 mg of 224G11 Mab/mouse and then twice a week with 1 mg of antibody/mouse. 50 mg/kg of PF-02341066 was administered p.o. (oral gavage), daily for a week and then 5 days a week with a double dose the fifth day. Treatment lasted during the whole experiment. Tumor volume was measured twice a week and calculated by the formula: π/6×length×width×height.

A further assay has as its system NCI-H441 cells. The assay is described as follows: In vivo activity of a combination of 224G11 and PF-02341066, NCI-H441 xenograft. Set-up: species or system Athymic nude mice. Particulars: day 53 post first injection; 224G11 i.p. 2 mg then 1 mg twice a week; PF-2341066 50 mg/kg p.o. The procedure: NCI-H441 cells from ATCC were routinely cultured in RPMI 1640 medium, 10% FCS, 1% L-Glutamine. Cells were split two days before engraftment so that they were in exponential phase of growth. Ten million NCI-H441 cells were engrafted to Athymic nude mice. […] For the antibody treatment, mice were treated i.p. with a loading dose of 2 mg of 224G11 Mab/mouse and then twice a week with 1 mg of antibody/mouse. 50 mg/kg of PF-2341066 was administered p.o. (oral gavage), daily for a week and then 5 days a week with a double dose the fifth day. The group of mice receiving both 224G11 and PF-2341066 was treated following the same modalities as the one described above for each compound. Tumor volume was measured twice a week and calculated by the formula: […]×length×width×height and animal weights were monitored every day over the period of treatment.
Statistical analysis was performed at each measured time using a Mann-Whitney test. In this experiment, mice of the control group were sacrificed on day 53 for ethical reasons. At day 53 post first injection, the average tumor volume of single modality treated groups is reduced by 64%, 73% and 93% for 224G11, PF-2341066 and 224G11+PF-2341066 respectively. […] No significant differences were observed between the 2 single modality treatment.

For the next assay, the system named is c-Met mutations. Particulars: cited from earlier work.
The target of a further assay is c-Met (Homo sapiens, UniProt P08581). As to the kind of experiment: Inhibition of c-Met dimerization by the antibodies.
c-Met, sequence (P08581 25-1390): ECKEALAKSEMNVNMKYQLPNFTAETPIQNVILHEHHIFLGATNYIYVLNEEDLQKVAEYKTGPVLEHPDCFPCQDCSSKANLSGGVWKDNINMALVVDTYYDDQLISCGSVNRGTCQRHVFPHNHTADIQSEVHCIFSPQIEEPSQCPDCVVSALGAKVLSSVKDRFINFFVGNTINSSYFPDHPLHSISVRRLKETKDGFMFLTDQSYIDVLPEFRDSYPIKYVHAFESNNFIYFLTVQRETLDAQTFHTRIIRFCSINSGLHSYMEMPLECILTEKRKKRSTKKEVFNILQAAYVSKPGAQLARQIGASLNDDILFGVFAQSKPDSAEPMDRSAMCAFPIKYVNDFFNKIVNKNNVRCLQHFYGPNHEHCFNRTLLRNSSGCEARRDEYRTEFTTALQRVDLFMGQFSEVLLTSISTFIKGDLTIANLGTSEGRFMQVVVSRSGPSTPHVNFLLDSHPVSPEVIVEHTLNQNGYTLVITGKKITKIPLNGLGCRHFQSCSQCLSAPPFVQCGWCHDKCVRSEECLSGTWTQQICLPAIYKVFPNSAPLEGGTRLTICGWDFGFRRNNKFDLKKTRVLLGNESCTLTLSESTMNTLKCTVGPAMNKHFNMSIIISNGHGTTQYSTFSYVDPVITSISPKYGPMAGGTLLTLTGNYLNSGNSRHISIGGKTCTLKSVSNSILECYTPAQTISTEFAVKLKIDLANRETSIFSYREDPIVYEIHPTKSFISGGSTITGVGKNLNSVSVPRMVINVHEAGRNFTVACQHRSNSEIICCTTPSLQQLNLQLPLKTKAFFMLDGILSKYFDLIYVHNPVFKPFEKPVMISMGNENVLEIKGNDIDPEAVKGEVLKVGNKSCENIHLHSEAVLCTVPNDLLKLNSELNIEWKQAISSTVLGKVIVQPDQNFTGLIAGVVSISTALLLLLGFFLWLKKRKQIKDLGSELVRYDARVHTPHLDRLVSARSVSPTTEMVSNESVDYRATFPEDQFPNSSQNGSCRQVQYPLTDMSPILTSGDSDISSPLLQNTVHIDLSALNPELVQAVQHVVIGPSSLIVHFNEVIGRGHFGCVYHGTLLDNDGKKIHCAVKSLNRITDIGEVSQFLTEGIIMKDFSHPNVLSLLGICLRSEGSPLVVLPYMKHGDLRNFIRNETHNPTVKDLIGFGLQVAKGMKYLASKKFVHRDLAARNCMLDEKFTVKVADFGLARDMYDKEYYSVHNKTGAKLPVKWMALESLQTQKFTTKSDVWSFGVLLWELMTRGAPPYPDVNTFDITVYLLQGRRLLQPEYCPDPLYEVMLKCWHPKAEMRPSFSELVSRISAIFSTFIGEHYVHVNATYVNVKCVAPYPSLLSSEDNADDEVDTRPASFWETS
A short description of assay [1]: In vivo activity of the anti-c-Met antibodies.

Where two headings read alike, the source gives them in different places.

As for `C[C@@H](Oc1cc(-c2cnn(C3CCNCC3)c2)cnc1N)c1c(Cl)ccc(F)c1Cl` [PF-02341066, 3-[(R)-1-(2,6-Dichloro-3-fluoro-phenyl)-ethoxy]-5-(1-piperidin-4-yl-1H-pyrazol-4-yl)-pyridin-2-ylamine, reference compound], in the assay with NCI-H441 NSCLC, the “tumors growth of treated mice (FIG. 1)” value is “significant difference in tumors growth” and the “antitumoral activity, single treatments compared with each other” value is given as “comparable antitumoral activities”. Also, the “average tumor volume reduced by” value in the assay on NCI-H441 cells was found to be 73%.
On to `Cc1[nH]c(/C=C2\C(=O)Nc3ccc(S(=O)(=O)N(C)c4cccc(Cl)c4)cc32)c(C)c1C(=O)N1CCN(C)CC1` [SU11274], for which the “sensitivity of c-Met mutation to the agent” value is “sensitive” in the assay on c-Met mutations (H1112Y mutation, decreased cell growth and motility); “resistant” in the assay with c-Met mutations (L1213V mutation); “sensitive” in the assay with c-Met mutations (M1268T mutation, decreased cell growth and motility); “resistant” with c-Met mutations (Y1248 mutation).

B1: 11E1: monoclonal antibody antagonist to c-Met, hybridoma CNCM I-3724; heavy chain SEQ ID No. 53, light chain SEQ ID No. 54 (antibody, V domains shown)
VH: QVQLQQSGAELAKPGASVKMSCKASGYTFTSYWMNWVKQRPGQGLEWIGYINPTTGSTDYNQKLKDKATLTADKSSNTAYMQLSSLTSEDSAVYYCAIGGYGSWFAYWGQGTLVTVSA
VL: QIVLTQSPAIMSASPGEKVTLTCSASSSVSSTYLYWYQQKPGSSPKLWIYTTSILASGVPARFSGSGSGTSYSLTISSMETEDAASYFCHQWSSYPFTFGSGTKLDIK
modifications: mus musculus
Regarding B1, the c-Met dimerization entry with c-Met was “inhibit the c-Met dimerization”. For the same molecule, the activity in vivo result in assay [1] is on record as “active in vivo”.

B2: 223C4: monoclonal antibody antagonist to c-Met, hybridoma CNCM I-3786; heavy chain SEQ ID No. 20, light chain SEQ ID No. 23 (antibody, V domains shown)
VH: EVLLQQSGPELVKPGASVKIPCKASGYTFTDYNMDWVKQSHGMSLEWIGDINPNNGGTIFNQKFKGKATLTVDKSSSTAYMELRSLTSEDTAVYYCARGRYVGYYYAMDYWGQGTSVTVSS
VL: DIQMTQSPASLSVSVGETVTITCRASENIYSNLAWYQQKQGKSPQLLVYAATNLVDGVPSRFSGSGSGTQYSLKINSLQSEDFGSYYCQHFWGPPYTFGGGTKLEIK
modifications: mus musculus
On to B2, for which, in the assay with c-Met, the c-Met dimerization result is “inhibit the c-Met dimerization”. In addition, in assay [1], the activity in vivo result is on record as “active in vivo”.

B3: 224G11: monoclonal antibody antagonist to c-Met secreted by murine hybridoma CNCM I-3731; heavy chain SEQ ID No. 18, light chain SEQ ID No. 21 (antibody, V domains shown)
VH: EVQLQQSGPELVKPGASVKISCKTSGYIFTAYTMHWVRQSLGESLDWIGGIKPNNGLANYNQKFKGKATLTVDKSSSTAYMDLRSLTSEDSAVYYCARSEITTEFDYWGQGTALTVSS
VL: DIVLTQSPASLAVSLGQRATISCRASESVDSYANSFMHWYQQKPGQPPKLLIYRASNLESGIPARFSGSGSRTDFTLTINPVEADDVATYYCQQSKEDPLTFGSGTKLEMK
modifications: mus musculus
Regarding B3, in the assay on NCI-H441 NSCLC, the “tumors growth of treated mice (FIG. 1)” value is reported as “significant difference in tumors growth” and the “antitumoral activity, single treatments compared with each other” value was “comparable antitumoral activities”. Besides, the “average tumor volume reduced by” value with NCI-H441 cells is recorded as 64%. Besides, the c-Met dimerization result in the assay with c-Met is “inhibit the c-Met dimerization”. For the same molecule, in assay [1], the activity in vivo result is reported as “active in vivo”.

B4: 227H1: monoclonal antibody antagonist to c-Met, hybridoma CNCM I-3732; heavy chain SEQ ID No. 19, light chain SEQ ID No. 22 (antibody, V domains shown)
VH: EVQLQQSGPELVKPGASMKISCKASGYSFTDYTLNWVKQSHGKTLEWIGLINPYNGGTTYNQKFKGKATLTVDKSSSTAYMELLSLTSEDSAVYYCAREEITKDFDFWGQGTTLTVSS
VL: GIVLTQSPASLAVSLGQRATISCRVSESIDTYGNSFIHWYQQKPGQPPKLLIYRASNLESGIPARFSGSGSRTDFTLTINPVEADDSATYYCQQSNEDPFTFGSGTKLEMK
modifications: mus musculus
For B4, the c-Met dimerization result in the assay with c-Met is given as “inhibit the c-Met dimerization”. Further, the activity in vivo result in assay [1] is listed as “active in vivo”.
